Substrate in the data set: C[C@]12CC[C@@H]3c4ccc(O)cc4CC[C@H]3[C@@H]1CC[C@@H]2O
As to the kind of experiment: HPLC of estrone (E1) formation. The settings on record: NAD+ (500 μM in the general assay), pH 7, MSM, 30 °C in the general assay, E2 0.018–0.40 mM. It counts as biochemical, Microbacterium resistens.

B1: 17β-HSD-0095 (Microbacterium resistens) (protein)
chain: MPTDPALPDPEPTKGNTMNRYEGRRALVTGGGSGIGQATVLRMLAEGGRVVAADVSPAGLADTVEKAGNAAARLTTVEVNVADEASVKAAVATAVDALGGLDVLVNAAGILRSSHTAETTLEQFETILRVNLVGTFLMIRESIPALLDGQDAAVVNFSSTSAMFAHPYMAAYAASKGGVQSMTHALAAEYAKQGIRFTAVQPGSISSGMTDGSGRSGQSAGPGLPEDADMSLFLKLAPAIGQGFAGPEAVAGVVAMLASADGAFITGTEVRIDGGTHF
notes: about 35 kDa on SDS-PAGE
Regarding B1, the Michaelis-Menten constant (Km) turned out to be 480 µM.

Source of the values: article PMC10294441, “Characterization of 17β-estradiol-degrading enzyme from Microbacterium sp. MZT7 and its function on E2 biodegradation in wastewater” (Microbial Cell Factories, 2023).
